167 variants from the RNAGym collection of RNA variant scans (doi:10.7554/elife.80360) can be followed below.

B1: HDV Ribozyme (parent)
chain: GGCCGGCAUGGUCCCAGCCUCCUCGCUGGCGCCGGCUGGGCAACAUUCCGAGGGGACCGUCCCCUCGGUAAUGGCGAAUGGGACCCA

The variants in this data set derive from B1. Description: self-cleavage, relative activity (ratio to wild type); higher = more cleavage; co-transcriptional.
In the case of C24A C64A, the self-cleavage came out at 0.803.

U9A A16U: the self-cleavage was 1.19.

For the variant C13G A45C, the self-cleavage amounted to 0.0639.

With U12G U72G, the self-cleavage was 0.128.

Regarding C63G A87U, the self-cleavage worked out at 0.71.

G67A A78C: the self-cleavage was determined as 0.0963.

For the variant C32U U47C, the self-cleavage is 0.764.

As for C18A G38C, the self-cleavage amounted to 0.145.

U46G G74U: the self-cleavage was 0.529.

As for A43G G82U, the self-cleavage came out at 0.189.

For G17C U27G, the self-cleavage was determined as 0.499.

For the variant C30G U79G, the self-cleavage came out at 0.128.

Consider C13U G25A, for which the self-cleavage turned out to be 0.122.

Turning to G31A U79C, the self-cleavage came to 0.11.

Take C4A G82A: the self-cleavage was found to be 0.0272.

As to G28A U72C, the self-cleavage is 0.101.

Regarding U69G U79C, the self-cleavage worked out at 0.326.

Consider U20C C86A, for which the self-cleavage came out at 0.158.

Take C4U G59A: the self-cleavage is 0.589.

As to U23C C44G, the self-cleavage was found to be 0.185.

G10C C26U: the self-cleavage is 0.997.

As for C21A C58G, the self-cleavage was found to be 0.128.

Regarding C41A A56C, the self-cleavage turned out to be 0.937.

C13A A43G: the self-cleavage was 0.0831.

Regarding U23A A56G, the self-cleavage is 1.02.

Regarding G1A G28U, the self-cleavage stood at 0.106.

As for C24A G29U, the self-cleavage came out at 0.0369.

With G31A C63A, the self-cleavage was determined as 0.379.

For U60A C63G, the self-cleavage is 0.851.

Regarding G31A G74U, the self-cleavage is 0.134.

For the variant G50A C86U, the self-cleavage came to 1.06.

Consider C14U G35A, for which the self-cleavage was determined as 0.631.

For the variant G25A U47G, the self-cleavage turned out to be 0.32.

As for U12C G53A, the self-cleavage worked out at 0.369.

As for C7U G81U, the self-cleavage was determined as 0.187.

Consider A16U C84A, for which the self-cleavage is 0.665.

Take A42C G59C: the self-cleavage came to 0.397.

With C66U G81C, the self-cleavage turned out to be 0.277.

G52C C64U: the self-cleavage came to 0.964.

As to C58A G76A, the self-cleavage turned out to be 1.02.

For G31C G76U, the self-cleavage is 0.463.

For C15U C61U, the self-cleavage turned out to be 0.882.

As for G2C A45C, the self-cleavage came to 0.0528.

Take C33U C62A: the self-cleavage amounted to 0.583.

As to G17A A42G, the self-cleavage came to 0.119.

Take C21A C33A: the self-cleavage is 0.026.

As for C14G U37A, the self-cleavage was 0.0489.

In the case of C24A C62U, the self-cleavage stood at 0.89.

On to C15A C36G, for which the self-cleavage came to 0.145.

With C7A G59C, the self-cleavage was determined as 0.578.

In the case of A71U C86U, the self-cleavage was determined as 1.02.

With G17C C24G, the self-cleavage was 0.0898.

As for C48U A70C, the self-cleavage was 0.649.

For G29A G53C, the self-cleavage amounted to 0.134.

Consider G17A A70G, for which the self-cleavage was determined as 0.554.

Regarding G6U A45U, the self-cleavage stood at 0.475.

Consider G6U A45G, for which the self-cleavage turned out to be 0.403.

Turning to U12C C61A, the self-cleavage came to 0.511.

In the case of C7A C49U, the self-cleavage was 0.582.

As for G2U A45U, the self-cleavage worked out at 0.0554.

Consider C24A C32A, for which the self-cleavage came out at 0.106.

Regarding G28C U65A, the self-cleavage was found to be 0.104.

With C61U A83U, the self-cleavage stood at 0.456.

For G6A C7U, the self-cleavage worked out at 0.283.

On to G11A A56G, for which the self-cleavage was found to be 0.346.

Turning to C64G C66G, the self-cleavage turned out to be 0.742.

Take G52U U72A: the self-cleavage was determined as 0.496.

As to G1C G17A, the self-cleavage amounted to 0.332.

Consider A8U A45U, for which the self-cleavage was found to be 0.587.

In the case of G34A G59U, the self-cleavage came out at 0.266.

As to G29C G80U, the self-cleavage is 0.0953.

In the case of G11A A45C, the self-cleavage worked out at 0.155.

In the case of G17C A83U, the self-cleavage stood at 0.256.

As to G2A C22G, the self-cleavage is 0.0191.

Regarding G38U A43C, the self-cleavage came out at 0.0811.

With G54A C58A, the self-cleavage was determined as 0.773.

On to C57G U79A, for which the self-cleavage is 0.802.

Consider U46G G82A, for which the self-cleavage worked out at 0.161.

Take C15G A51U: the self-cleavage stood at 0.475.

With G6A A8U, the self-cleavage turned out to be 0.475.

In the case of G28U G31A, the self-cleavage stood at 0.0554.

U72G G80U: the self-cleavage turned out to be 0.0963.

Turning to G5A G55A, the self-cleavage was 0.237.

For C30U C44G, the self-cleavage was 0.135.

For C61A A70G, the self-cleavage is 0.812.

On to G38U G50C, for which the self-cleavage worked out at 0.225.

In the case of G17C G52U, the self-cleavage stood at 0.363.

With A16C G81C, the self-cleavage stood at 0.346.

For C41G A71G, the self-cleavage came to 0.554.

Consider G68U C86G, for which the self-cleavage turned out to be 0.945.

Take G1C C84G: the self-cleavage worked out at 0.

As for U37A C66A, the self-cleavage stood at 0.29.

In the case of G31A C58A, the self-cleavage came out at 0.574.

Consider C18A U69C, for which the self-cleavage is 0.138.

As for C3A C22A, the self-cleavage was found to be 0.0716.

As for C64G A71C, the self-cleavage came to 0.68.

As to A8U U27G, the self-cleavage came to 0.906.

Consider C18A C48U, for which the self-cleavage was determined as 0.0627.

For G5U C33A, the self-cleavage was 0.898.

Regarding C24U G50C, the self-cleavage is 0.554.

With C3A U23G, the self-cleavage turned out to be 0.352.

With C30A C75A, the self-cleavage came to 0.166.

In the case of G34A U65G, the self-cleavage was 0.178.

With C22G U27G, the self-cleavage was determined as 0.0978.

For the variant C15G U27G, the self-cleavage worked out at 0.104.

In the case of G10U G54A, the self-cleavage was 0.735.

For the variant A16G C44U, the self-cleavage is 0.615.

On to G17U A77G, for which the self-cleavage was 0.0536.

As to C33G G55U, the self-cleavage turned out to be 0.204.

Regarding G73A A87C, the self-cleavage worked out at 0.643.

With G55C G81U, the self-cleavage is 0.256.

Consider G54U G80A, for which the self-cleavage came out at 0.257.

Turning to G17U G52U, the self-cleavage stood at 0.517.

Take C19G C26G: the self-cleavage was found to be 0.

For G6U C7G, the self-cleavage was 0.

For the variant U23C C86A, the self-cleavage stood at 0.857.

For the variant G31C G81C, the self-cleavage was 0.194.

Consider C19U U72G, for which the self-cleavage is 0.0396.

For the variant A71C G76A, the self-cleavage came to 0.935.

Consider C3A C19G, for which the self-cleavage stood at 0.0441.

As for U23C G67C, the self-cleavage came to 0.969.

In the case of A8C C49A, the self-cleavage is 0.9.

Regarding C49A U60C, the self-cleavage stood at 0.78.

Consider C3U C75G, for which the self-cleavage is 0.104.

Consider C32U G80U, for which the self-cleavage was found to be 0.145.

Take C33G G74C: the self-cleavage turned out to be 0.237.

With G1C C86U, the self-cleavage was 0.262.

Consider U37G C49U, for which the self-cleavage was 0.268.

Take U20A G81C: the self-cleavage is 0.0449.

As to C13G U69A, the self-cleavage was determined as 0.0437.

Turning to U20C U37C, the self-cleavage came to 0.252.

C61G G73A: the self-cleavage came to 0.475.

In the case of G1C U23G, the self-cleavage was determined as 0.227.

Consider C3A C64G, for which the self-cleavage came to 0.32.

As for U37G G76C, the self-cleavage came to 0.142.

With G29A C75G, the self-cleavage came to 0.0346.

Take G67C G74U: the self-cleavage was found to be 0.332.

Consider G2U C85A, for which the self-cleavage was 0.104.

U60G G73U: the self-cleavage was determined as 0.298.

C3G U27A: the self-cleavage was 0.308.

Regarding G5C G31C, the self-cleavage worked out at 0.0519.

In the case of G55A A71C, the self-cleavage was 0.978.

For the variant G5U A43U, the self-cleavage was found to be 0.0978.

Regarding G31U C44G, the self-cleavage came to 0.0665.

For A51U G80A, the self-cleavage was determined as 0.344.

A8G G82C: the self-cleavage came to 0.128.

As for C4A U69C, the self-cleavage is 0.277.

Take C26A C75G: the self-cleavage is 0.

Turning to G55U G74U, the self-cleavage came out at 0.707.

Take G5C G80U: the self-cleavage amounted to 0.124.

Turning to C21G C36G, the self-cleavage worked out at 0.

With C64U G80A, the self-cleavage came to 0.397.

As to C21G U27A, the self-cleavage was 0.

On to G40C A87G, for which the self-cleavage came out at 0.215.

For C21A A45G, the self-cleavage worked out at 0.0615.

For C18U G67A, the self-cleavage amounted to 0.468.

Turning to G31U G81U, the self-cleavage was found to be 0.23.

Turning to G39A A42G, the self-cleavage came to 0.0292.

On to C48G C86A, for which the self-cleavage amounted to 1.09.

As for C62U A87G, the self-cleavage turned out to be 1.05.

Turning to C30A C58U, the self-cleavage was 0.318.

Consider U12G G74U, for which the self-cleavage is 0.453.

For the variant G5U G6C, the self-cleavage is 0.

For G76C A77U, the self-cleavage was found to be 0.399.

C57G C62A: the self-cleavage turned out to be 0.957.

With C64G A78C, the self-cleavage stood at 0.269.

Turning to C4G G35U, the self-cleavage amounted to 0.0875.
